How the values were obtained:
[1] = Chronic endotoxemia model (LPS 20 mg/kg i.p.) in mice; format: in vivo, Male FVB mice
Experimental: (§1) TNF-α in conditioned medium or mouse serum was measured by an enzyme-linked immunosorbent assay (ELISA) (R&D Systems, Minneapolis, Minn.). Accumulation of nitrite in the medium or mouse serum was determined by a colorimetric assay using Griess reagent (Sigma-Aldrich). Blood urea nitrogen (BUN) and creatinine were measured with a Roche D&P modular (Roche Diagnostic Systems, Branchburg, N.J.). Assays were performed according to the manufacturer's protocol.
(§2) Male FVB mice (8-10 weeks old) were used to model sepsis in vivo. The Institutional Animal Care and Use Committee of the National Cheng Kung University approved procedures. In the chronic endotoxemia model, various concentrations of rTMD1 or rTMD proteins in equi-molar amounts were administrated by tail intravenous (i.v.) injection and LPS (20 mg/kg) or K. pneumoniae (5×10^2 CFU/mouse, BCRC) was administrated by intraperitoneal (i.p.) injection. After 6 or 12 hours, mice were sacrificed by pentobarbital anesthesia (50 mg/kg; i.p.). Sera were collected and assayed for TNF-α, NO, BUN, and creatinine, and lung and kidney tissues were removed, fixed with formalin, and embedded in paraffin for histochemical examination. In the lethal sepsis model, rTMD1 (2 mg/kg, equals 87.3 nmole/kg) was i.v.-administrated at 0, 6, 12, and 24 hours after i.p. administration of LPS (40 mg/kg). The half-life of rTMD1 in the circulation was determined by i.v. injection of rTMD1 (10 mg/kg, equals 436.64 nmole/kg) and serum samples were collected at various time intervals. The levels of rTMD1 in the collected sera were determined by a sandwich ELISA which employed anti-c-Myc monoclonal antibody and TM-H300 as capture and detection antibodies (both from Santa Cruz Biotechnology), respectively. For the lethal bacteremia model, rTMD1 (10 mg/kg) was administrated prior to i.p. injection of K. pneumoniae (5×10^3 CFU/mouse). Mortality was monitored every 6-12 hours until all mice in either experimental group died. Experimental procedure of determining LPS half-life is as following. LPS (20 mg/kg) was i.p.-administrated to male FVB mice without or with rTMD1 (10 mg/kg; i.v.). Serum samples were collected at various time intervals and the amount of LPS was determined by Limulus amebocyte lysate test (Associates of Cape Cod, E. Falmouth, Mass.). A further experiment was performed to determine whether rTMD1 affects bacterial clearance. K. pneumoniae (5×10^2 CFU/mouse) was i.p.-administrated to male FVB mice without or with rTMD1 (10 mg/kg; i.v.), and blood samples were collected at various time intervals. Outgrowth of K. pneumoniae was quantified by plating serial dilutions of blood samples on blood agar plates and enumerating colonies after overnight incubation at 37° C.

K. pneumoniae = K. pneumoniae (5×10^2 CFU/mouse) systemic sepsis model in mice; format: in vivo, Male FVB mice
Experimental: as §1
as §2, with “For the lethal bacteremia model, rTMD1 (10 mg/kg) was administrated prior to i.p. injection of K. pneumoniae (5×10^3 CFU/mouse).” left out

[2] = 12 hours after LPS, compared with LPS-treated mice
[3] = rTMD1 1-5 mg/kg i.v., 6 hours after LPS 20 mg/kg i.p.
[4] = rTMD1 5-25 mg/kg i.v., 12 hours, 5×10^2 CFU

B1: rTMD1: recombinant human thrombomodulin N-terminal lectin-like domain (residues Ala1-Ala155) with 6×His tag and c-Myc epitope, Pichia pastoris expressed (protein)
chain: EFAPAEPQPGGSQCVEHDCFALYPGPATFLNASQICDGLRGHLMTVRSSVAADVISLLLNGDGGVGRRRLWIGLQLPPGCGDPKRLGPLRGFQWVTGDNNTSYSRWARLDLNGAPLCGPLCVAVSAAEATVPSEPIWEEQQCEVKADGFLCEFHFPAYLEDDDDKIEQKLISEEDLNSAVDHHHHHH
modifications: left off: small tags and cut ends
[1]; 6 hours after LPS administration (FIG. 2C-D)
  pulmonary accumulation of PMNs / LPS-induced inflammatory responses: significantly inhibited
[1]; [2]
  BUN level: markedly reduced
  serum creatinine level: markedly reduced
[1]; kidney, 12 hours after LPS 20 mg/kg (FIG. 2E)
  extent of glomerulonephritis: significantly reduced
[1]; [3]
  NO levels in mice: significantly decreasing levels
  TNF-α levels in mice: significantly decreasing levels
K. pneumoniae; all rTMD1-treated groups vs infected mice without rTMD1
  survival, post-treatment: improved
K. pneumoniae; rTMD1 10 mg/kg i.v. immediately, 30 or 60 minutes after K. pneumoniae
  K. pneumoniae-induced TNF-α release, post-treatment: effectively suppress
K. pneumoniae; [4]
  NO production in K. pneumoniae-infected mice: effectively reduced
  TNF-α production in K. pneumoniae-infected mice: effectively reduced
